Laboratory results published in the supplement of paper PMC7877785.
± gives the uncertainty stated by the source.

Assay: self-splicing fitness, log relative to wild type (ln ratio); higher = more splicing; Tetrahymena group I intron in knt gene, E. coli kanamycin selection, DiMSum; sequences stand for … in CUCUCU…GGAGGGAAAAGUUAUCAGGCAUGCACCUGGUAGCUAGUCUUUAAACCAAUAGAUUGCAUCGGUUUAAAAGGCAAGACCGUCAAAUUGCGGGAAAGGGGUCAACAGCCGUUCAGUACCAAGUCUCAGGGGAAACUUUGAGAUGGCCUUGCAAAGGGUAUGGUAAUAAGCUGACGGACAUGGUCCUAACCACGCAGCCAAGUCCUAAGUCAACAGAUCUUCUGUUGAUAUGGAUGCAGUUCACAGACUAAAUGUCGGUCGGGGAAGAUGUAUUCUUCUCAUAAGAUAUAGUCGGACCUCUCCUUAAUGGGAGCUAGCGGAUGAAGUGAUGCAACACUGGAGCCGCUGGGAACUAAUUUGUAUGCGAAAGUAUAUUGAUUAGUUUUGGAGUACUCGUGGUCG
Outline: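 DiMSum derived fitness as the error-weighted combination of fold changes across replicates, kanamycin versus no kanamycin, normalised to wild type. E. coli BL21(DE3) held the library, which randomised all eight P1ex-region intron nucleotides within the knt kanamycin-resistance gene on pET-22b(+). Six replicate transformations grew overnight at 37°C or 30°C on LB agar with or without 25 μg/mL kanamycin, also containing 100 μg/mL carbenicillin, 50 μM IPTG and 0.2% rhamnose, and pooled colonies were amplicon-sequenced on an Illumina HiSeq 2500.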

Sequence	self-splicing fitness (ln) (30 °C)	self-splicing fitness (ln) (37 °C)
AAAAAGCAAUAUUACGAAAC	-3.11 ± 0.22	-2.36 ± 0.16
AAAAAGCAAUAUUACGAAUG	-1.48 ± 0.091	-0.947 ± 0.12
AAAAAGCAAUAUUACGACGA	0.0233 ± 0.084	-0.502 ± 0.1
AAAAAGCAAUAUUACGAGCG	-0.337 ± 0.12	-0.566 ± 0.11
AAAAAGCAAUAUUACGAUCC	-0.549 ± 0.12	0.153 ± 0.18
AAAAAGCAAUAUUACGAUCG	-0.0337 ± 0.054	0.0375 ± 0.068
AAAAAGCAAUAUUACGAUGA	-0.913 ± 0.064	-0.139 ± 0.084
AAAAAGCAAUAUUACGAUGU	-0.893 ± 0.064	-0.0506 ± 0.079
AAAAAGCAAUAUUACGAUUC	-0.58 ± 0.091	-0.42 ± 0.12
AAAAAGCAAUAUUACGCCCU	0.324 ± 0.1	0.202 ± 0.12
AAAAAGCAAUAUUACGCCUA	-0.792 ± 0.12	-0.855 ± 0.094
AAAAAGCAAUAUUACGCUCA	-0.278 ± 0.058	0.0203 ± 0.082
AAAAAGCAAUAUUACGGACC	-0.351 ± 0.092	-0.225 ± 0.11
AAAAAGCAAUAUUACGGGCU	-1.55 ± 0.074	-1.24 ± 0.099
AAAAAGCAAUAUUACGGUAA	-1.31 ± 0.12	-0.53 ± 0.11
AAAAAGCAAUAUUACGGUGG	-2.28 ± 0.1	-1.77 ± 0.13
AAAAAGCAAUAUUACGUACA	-0.777 ± 0.069	-0.613 ± 0.071
AAAAAGCAAUAUUACGUAUG	-2.02 ± 0.11	-1.63 ± 0.13
AAAAAGCAAUAUUACGUGCU	-1.68 ± 0.076	-0.538 ± 0.079
AAAAAGCAAUAUUACGUGUC	-3.44 ± 0.17	-1.79 ± 0.17
AAAAAGCAAUAUUACGUUGG	-3.28 ± 0.14	-1.15 ± 0.11
AAACAGCAAUAUUACGAAAC	-2.4 ± 0.24	-1.51 ± 0.23
AAACAGCAAUAUUACGAAUU	-2.36 ± 0.11	-1.2 ± 0.13
AAACAGCAAUAUUACGACUC	-0.613 ± 0.077	-0.502 ± 0.098
AAACAGCAAUAUUACGACUU	0.0535 ± 0.066	0.468 ± 0.086
AAACAGCAAUAUUACGAUAA	-1.6 ± 0.085	-0.365 ± 0.092

Sequence	self-splicing fitness (ln) (30 °C)	self-splicing fitness (ln) (37 °C)
AAACAGCAAUAUUACGAUGC	-2.27 ± 0.058	-1.55 ± 0.074
AAACAGCAAUAUUACGAUUG	-3.35 ± 0.12	-1.76 ± 0.12
AAACAGCAAUAUUACGCACC	-0.45 ± 0.084	-0.254 ± 0.099
AAACAGCAAUAUUACGCACG	-1.45 ± 0.099	-0.888 ± 0.11
AAACAGCAAUAUUACGCCGA	-1.99 ± 0.087	-1.35 ± 0.09
AAACAGCAAUAUUACGCCGU	-2.54 ± 0.13	-1.96 ± 0.11
AAACAGCAAUAUUACGCUUA	-1.92 ± 0.087	-0.649 ± 0.094
AAACAGCAAUAUUACGCUUC	-3.6 ± 0.26	-2.35 ± 0.21
AAACAGCAAUAUUACGGCCU	-1.51 ± 0.064	-0.591 ± 0.071
AAACAGCAAUAUUACGGUCA	-0.86 ± 0.089	0.186 ± 0.097
AAACAGCAAUAUUACGGUUA	-0.306 ± 0.056	-0.167 ± 0.066
AAACAGCAAUAUUACGUGCG	-1.52 ± 0.053	-0.389 ± 0.065
AAACAGCAAUAUUACGUUCU	-0.831 ± 0.061	-0.0204 ± 0.077
AAAGAGCAAUAUUACGAAAC	-3.23 ± 0.44	-2.67 ± 0.48
AAAGAGCAAUAUUACGAACU	-1.41 ± 0.18	-1.14 ± 0.27
AAAGAGCAAUAUUACGACUU	-0.0829 ± 0.067	-0.0473 ± 0.079
AAAGAGCAAUAUUACGAGGU	-4.63 ± 0.26	-2.82 ± 0.19
AAAGAGCAAUAUUACGAUUA	-2.18 ± 0.22	-0.939 ± 0.17
AAAGAGCAAUAUUACGCCUC	-0.411 ± 0.27	–
AAAGAGCAAUAUUACGCUGU	-3.2 ± 0.15	-1.88 ± 0.16
AAAGAGCAAUAUUACGCUUU	-3.18 ± 0.23	-3.68 ± 0.36
AAAGAGCAAUAUUACGGACC	–	-1.61 ± 0.3
AAAGAGCAAUAUUACGGGCC	-2.09 ± 0.3	-1.86 ± 0.41
AAAGAGCAAUAUUACGGGGG	-2.5 ± 0.34	-2.31 ± 0.39
AAAGAGCAAUAUUACGGUCA	-1.91 ± 0.21	-1.3 ± 0.17
AAAGAGCAAUAUUACGGUCU	-2.5 ± 0.13	-1.76 ± 0.14

Sequence	self-splicing fitness (ln) (30 °C)	self-splicing fitness (ln) (37 °C)
AAAGAGCAAUAUUACGUAGG	-3.36 ± 0.15	-2.76 ± 0.25
AAAGAGCAAUAUUACGUCAG	-4.01 ± 0.36	-2.29 ± 0.32
AAAGAGCAAUAUUACGUCUG	-3.55 ± 0.22	-2.36 ± 0.2
AAAGAGCAAUAUUACGUGAG	-2.95 ± 0.12	-1.02 ± 0.12
AAAGAGCAAUAUUACGUUAA	-3.16 ± 0.25	-2.28 ± 0.28
AAAGAGCAAUAUUACGUUGU	-3.11 ± 0.13	-2.51 ± 0.2
AAAUAGCAAUAUUACGACCG	-0.956 ± 0.15	-0.441 ± 0.19
AAAUAGCAAUAUUACGACGC	-0.825 ± 0.062	0.13 ± 0.085
AAAUAGCAAUAUUACGACGU	0.194 ± 0.083	-0.646 ± 0.074
AAAUAGCAAUAUUACGAGGA	-2.72 ± 0.19	-1.88 ± 0.18
AAAUAGCAAUAUUACGAGUA	-2.58 ± 0.19	-1.09 ± 0.12
AAAUAGCAAUAUUACGCAAG	-2.14 ± 0.094	-1.13 ± 0.11
AAAUAGCAAUAUUACGCAAU	-2.44 ± 0.13	-0.689 ± 0.12
AAAUAGCAAUAUUACGCAGA	-2.07 ± 0.26	–
AAAUAGCAAUAUUACGCGAA	-1.42 ± 0.14	-1.59 ± 0.16
AAAUAGCAAUAUUACGCGAC	-2.2 ± 0.17	-1.03 ± 0.2
AAAUAGCAAUAUUACGCGCA	-0.264 ± 0.092	-0.103 ± 0.11
AAAUAGCAAUAUUACGCGCG	-0.988 ± 0.1	-0.952 ± 0.11
AAAUAGCAAUAUUACGCGUA	-2.41 ± 0.21	-1.04 ± 0.13
AAAUAGCAAUAUUACGCUCA	-0.111 ± 0.13	0.39 ± 0.16
AAAUAGCAAUAUUACGUAGG	-2.59 ± 0.1	-1.96 ± 0.1
AAAUAGCAAUAUUACGUAUU	-2.56 ± 0.11	-0.844 ± 0.094
AAAUAGCAAUAUUACGUCCU	-0.0903 ± 0.081	0.319 ± 0.1
AAAUAGCAAUAUUACGUGGU	-3.87 ± 0.16	-2.84 ± 0.15
AAAUAGCAAUAUUACGUUAA	-2.87 ± 0.2	-2.1 ± 0.24
